# B1: ZO-2 (natural protein)
# chain: MPVRGDRGFPPRRELSGWLRAPGMEELIWEQYTVTLQKDSKRGFGIAVSGGRDNPHFENGETSIVISDVLPGGPADGLLQENDRVVMVNGTPMEDVLHSFAVQQLRKSGKVAAIVVKRPRKVQVAALQASPPLDQDDRAFEVMDEFDGRSFRSGYSERSRLNSHGGRSRSWEDSPERGRPHERARSRERDLSRDRSRGRSLERGLDQDHARTRDRSRGRSLERGLDHDFGPSRDRDRDRSRGRSIDQDYERAYHRAYDPDYERAYSPEYRRGARHDARSRGPRSRSREHPHSRSPSPEPRGRPGPIGVLLMKSRANEEYGLRLGSQIFVKEMTRTGLATKDGNLHEGDIILKINGTVTENMSLTDARKLIEKSRGKLQLVVLRDSQQTLINIPSLNDSDSEIEDISEIESNRSFSPEERRHQYSDYDYHSSSEKLKERPSSREDTPSRLSRMGATPTPFKSTGDIAGTVVPETNKEPRYQEDPPAPQPKAAPRTFLRPSPEDEAIYGPNTKMVRFKKGDSVGLRLAGGNDVGIFVAGIQEGTSAEQEGLQEGDQILKVNTQDFRGLVREDAVLYLLEIPKGEMVTILAQSRADVYRDILACGRGDSFFIRSHFECEKETPQSLAFTRGEVFRVVDTLYDGKLGNWLAVRIGNELEKGLIPNKSRAEQMASVQNAQRDNAGDRADFWRMRGQRSGVKKNLRKSREDLTAVVSVSTKFPAYERVLLREAGFKRPVVLFGPIADIAMEKLANELPDWFQTAKTEPKDAGSEKSTGVVRLNTVRQIIEQDKHALLDVTPKAVDLLNYTQWFPIVIFFNPDSRQGVKTMRQRLNPTSNKSSRKLFDQANKLKKTCAHLFTATINLNSANDSWFGSLKDTIQHQQGEAVWVSEGKMEGMDDDPEDRMSYLTAMGADYLSCDSRLISDFEDTDGEGGAYTDNELDEPAEEPLVSSITRSSEPVQHEESIRKPSPEPRAQMRRAASSDQLRDNSPPPAFKPEPPKAKTQNKEESYDFSKSYEYKSNPSAVAGNETPGASTKGYPPPVAAKPTFGRSILKPSTPIPPQEGEEVGESSEEQDNAPKSVLGKVKIFEKMDHKARLQRMQELQEAQNARIEIAQKHPDIYAVPIKTHKPDPGTPQHTSSRPPEPQKAPSRPYQDTRGSYGSDAEEEEYRQQLSEHSKRGYYGQSARYRDTEL
# Molecular target: HPV-16Q150A peptide (Human papillomavirus type 16)
# Experiment: affinity purification with mass spectrometry; biotinylated peptide (500 ug) on streptavidin magnetic sepharose beads; pre-cleared HaCaT cell extract, 2 h at 4°C; lysis buffer 50 mM HEPES pH 7.4, 150 mM NaCl, 1 mM MgCl2, 1% Triton X-100; trypsin digest and mass spectroscopy; pooled from at least two pull-downs
binder,measurement,value
B1,reduction in binding against the HPV-16 peptide,25%
